Measurements reported in PMC9108619.

Target: T1, UPF2 (endogenous), Q9HAU5
T1 chain: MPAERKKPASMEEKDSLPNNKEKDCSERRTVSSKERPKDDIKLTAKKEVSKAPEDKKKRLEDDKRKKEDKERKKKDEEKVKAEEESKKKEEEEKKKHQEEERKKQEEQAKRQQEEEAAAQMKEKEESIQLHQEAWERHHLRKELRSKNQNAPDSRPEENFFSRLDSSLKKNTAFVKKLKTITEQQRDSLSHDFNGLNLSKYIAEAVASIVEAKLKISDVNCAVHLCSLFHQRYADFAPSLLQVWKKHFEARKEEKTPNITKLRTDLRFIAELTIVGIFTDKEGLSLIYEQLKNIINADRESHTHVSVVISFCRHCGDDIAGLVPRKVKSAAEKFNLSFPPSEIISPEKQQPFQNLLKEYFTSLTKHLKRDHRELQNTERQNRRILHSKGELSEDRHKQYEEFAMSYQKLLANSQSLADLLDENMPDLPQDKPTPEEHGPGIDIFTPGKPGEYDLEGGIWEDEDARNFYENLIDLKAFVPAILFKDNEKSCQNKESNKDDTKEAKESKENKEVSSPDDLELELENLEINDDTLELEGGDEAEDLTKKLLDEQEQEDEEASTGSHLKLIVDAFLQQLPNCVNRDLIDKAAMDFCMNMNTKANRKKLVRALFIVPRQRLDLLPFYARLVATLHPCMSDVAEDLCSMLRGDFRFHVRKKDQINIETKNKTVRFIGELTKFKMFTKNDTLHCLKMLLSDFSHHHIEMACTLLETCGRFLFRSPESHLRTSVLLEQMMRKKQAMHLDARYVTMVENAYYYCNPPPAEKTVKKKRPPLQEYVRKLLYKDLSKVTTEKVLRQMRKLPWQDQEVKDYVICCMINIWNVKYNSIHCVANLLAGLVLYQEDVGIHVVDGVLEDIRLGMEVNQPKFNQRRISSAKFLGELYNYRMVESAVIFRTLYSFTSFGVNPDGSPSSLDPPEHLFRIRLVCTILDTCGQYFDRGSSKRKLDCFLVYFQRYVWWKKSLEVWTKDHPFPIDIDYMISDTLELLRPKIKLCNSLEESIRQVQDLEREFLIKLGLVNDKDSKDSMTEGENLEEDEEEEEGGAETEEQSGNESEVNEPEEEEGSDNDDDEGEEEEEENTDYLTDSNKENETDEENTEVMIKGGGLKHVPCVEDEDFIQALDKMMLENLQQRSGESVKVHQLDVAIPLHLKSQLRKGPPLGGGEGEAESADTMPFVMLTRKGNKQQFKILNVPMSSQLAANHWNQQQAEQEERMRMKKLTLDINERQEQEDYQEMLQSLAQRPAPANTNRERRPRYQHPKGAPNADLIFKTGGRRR
Experiment: TurboID proximity labelling, streptavidin enrichment, mass spectrometry
Settings: chain shown with the change; UPF3B KO + UPF3A KD cells; n = 3 biologically independent samples; read off a plot

other: log2 fold change: -1.8
B1: FLAG-TurboID-UPF3B, Q9BZI7-2 K52D; RR56EE (protein)
chain: MKEEKEHRPKEKRVTLLTPAGATGSGGGTSGDSSKGEDKQDRNKEKKEALSDVVIEELPPTLTKEQLQEHLQPMPEHDYFEFFSNDTSLYPHMYARAYINFKNQEDIILFRDRFDGYVFLDNKGQEYPAIVEFAPFQKAAKKKTKKRDTKVGTIDDDPEYRKFLESYATDNEKMTSTPETLLEEIEAKNRELIAKKTTPLLSFLKNKQRMREEKREERRRREIERKRQREEERRKWKEEEKRKRKDIEKLKKIDRIPERDKLKDEPKIKLLKKPEKGDEKELDKREKAKKLDKENLSDERASGQSCTLPKRSDSELKDEKPKRPEDESGRDYREREREYERDQERILRERERLKRQEEERRRQKERYEKEKTFKRKEEEMKKEKDTLRDKGKKAESTESIGSSEKTEKKEEVVKRDRIRNKDRPAMQLYQPGARSRNRLCPPDDSTKSGDSAAERKQESGISHRKEGGEE
